# Data from IntAct's records for PubMed 29892012.
# B1: Forkhead box protein P3 (Homo sapiens), Q9BZS1 (parent)
# chain: MPNPRPGKPSAPSLALGPSPGASPSWRAAPKASDLLGARGPGGTFQGRDLRGGAHASSSSLNPMPPSQLQLPTLPLVMVAPSGARLGPLPHLQALLQDRPHFMHQLSTVDAHARTPVLQVHPLESPAMISLTPPTTATGVFSLKARPGLPPGINVASLEWVSREPALLCTFPNPSAPRKDSTLSAVPQSSYPLLANGVCKWPGCEKVFEEPEDFLKHCQADHLLDEKGRAQCLLQREMVQSLEQQLVLEKEKLSAMQAHLAGKMALTKASSVASSDKGSCCIVAAGSQGPVVPAWSGPREAPDSLFAVRRHLWGSHGNSTFPEFLHNMDYFKFHNMRPPFTYATLIRWAILEAPEKQRTLNEIYHWFTRMFAFFRNHPATWKNAIRHNLSLHKCFVRVESEKGAVWTVDELEFRKKRSQRPSRCSNPTPGP
# B2: Abl interactor 2 (Homo sapiens), Q9NYB9 (parent)
# chain: MAELQMLLEEEIPGGRRALFDSYTNLERVADYCENNYIQSADKQRALEETKAYTTQSLASVAYLINTLANNVLQMLDIQASQLRRMESSINHISQTVDIHKEKVARREIGILTTNKNTSRTHKIIAPANLERPVRYIRKPIDYTILDDIGHGVKWLLRFKVSTQNMKMGGLPRTTPPTQKPPSPPMSGKGTLGRHSPYRTLEPVRPPVVPNDYVPSPTRNMAPSQQSPVRTASVNQRNRTYSSSGSSGGSHPSSRSSSRENSGSGSVGVPIAVPTPSPPSVFPAPAGSAGTPPLPATSASAPAPLVPATVPSSTAPNAAAGGAPNLADGFTSPTPPVVSSTPPTGHPVQFYSMNRPASRHTPPTIGGSLPYRRPPSITSQTSLQNQMNGGPFYSQNPVSDTPPPPPPVEEPVFDESPPPPPPPEDYEEEEAAVVEYSDPYAEEDPPWAPRSYLEKVVAIYDYTKDKEDELSFQEGAIIYVIKKNDDGWYEGVMNGVTGLFPGNYVESIMHYSE
# partner: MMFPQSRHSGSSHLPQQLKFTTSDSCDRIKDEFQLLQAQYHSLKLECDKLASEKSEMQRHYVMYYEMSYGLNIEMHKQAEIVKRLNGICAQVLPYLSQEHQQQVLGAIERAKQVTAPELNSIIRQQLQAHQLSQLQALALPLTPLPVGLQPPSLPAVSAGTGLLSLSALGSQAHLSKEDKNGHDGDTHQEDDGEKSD
# B3: Abl interactor 2 (Homo sapiens), Q9NYB9 (parent)
# chain: B2 chain
# partner: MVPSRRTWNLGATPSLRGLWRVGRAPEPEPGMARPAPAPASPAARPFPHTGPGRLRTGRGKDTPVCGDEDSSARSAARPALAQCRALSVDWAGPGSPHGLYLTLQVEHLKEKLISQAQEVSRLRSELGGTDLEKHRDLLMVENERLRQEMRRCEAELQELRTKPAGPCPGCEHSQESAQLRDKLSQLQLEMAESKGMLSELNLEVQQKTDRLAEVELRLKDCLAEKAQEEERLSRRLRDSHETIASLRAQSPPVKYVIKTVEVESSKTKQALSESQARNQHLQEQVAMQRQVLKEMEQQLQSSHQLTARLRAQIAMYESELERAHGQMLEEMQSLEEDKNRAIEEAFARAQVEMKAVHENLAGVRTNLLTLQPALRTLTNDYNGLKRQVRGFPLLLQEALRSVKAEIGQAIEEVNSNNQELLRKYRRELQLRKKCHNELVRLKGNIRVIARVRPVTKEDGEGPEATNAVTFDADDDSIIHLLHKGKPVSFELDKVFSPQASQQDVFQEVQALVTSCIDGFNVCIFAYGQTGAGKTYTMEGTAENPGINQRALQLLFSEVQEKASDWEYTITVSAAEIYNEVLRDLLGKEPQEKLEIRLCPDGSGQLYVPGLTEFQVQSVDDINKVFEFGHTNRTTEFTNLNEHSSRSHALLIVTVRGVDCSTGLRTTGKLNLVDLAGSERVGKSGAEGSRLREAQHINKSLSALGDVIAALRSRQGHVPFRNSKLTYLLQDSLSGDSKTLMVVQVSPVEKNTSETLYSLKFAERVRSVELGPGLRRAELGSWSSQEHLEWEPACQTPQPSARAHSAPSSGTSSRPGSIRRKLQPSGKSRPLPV
# B4: Abl interactor 2 (Homo sapiens), Q9NYB9 (parent)
# chain: B2 chain
# partner: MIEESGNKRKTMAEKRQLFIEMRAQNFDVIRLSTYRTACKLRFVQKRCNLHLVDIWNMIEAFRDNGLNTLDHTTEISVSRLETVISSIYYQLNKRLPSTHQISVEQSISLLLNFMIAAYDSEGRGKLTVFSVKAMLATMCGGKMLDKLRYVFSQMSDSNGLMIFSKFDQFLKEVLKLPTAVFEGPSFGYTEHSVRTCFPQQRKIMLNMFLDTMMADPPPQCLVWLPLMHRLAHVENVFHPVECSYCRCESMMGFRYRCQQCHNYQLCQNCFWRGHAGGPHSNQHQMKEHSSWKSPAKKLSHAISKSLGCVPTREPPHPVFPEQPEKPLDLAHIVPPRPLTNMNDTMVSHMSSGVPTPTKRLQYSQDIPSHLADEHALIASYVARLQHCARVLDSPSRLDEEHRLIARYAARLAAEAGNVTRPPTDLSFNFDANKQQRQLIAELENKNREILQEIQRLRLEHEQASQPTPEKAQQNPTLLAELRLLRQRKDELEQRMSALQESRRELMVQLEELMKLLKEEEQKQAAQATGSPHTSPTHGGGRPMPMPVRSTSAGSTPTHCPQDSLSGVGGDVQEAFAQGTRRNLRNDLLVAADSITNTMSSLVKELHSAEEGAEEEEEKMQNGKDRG
# B5: U3 small nucleolar RNA-associated protein 25 homolog (Homo sapiens), Q68CQ4 (parent)
# chain: MGKRGSRSQSQLLNTLTKKQKKHLRDFGEEHPFYDRVSRKEAKPQICQLSESSDSSDSESDSESEPQQVSGYHRLLATLKNVSEEEEEDEEEEEEEDSIVDDAEMNDEDGGSDVSVEEEMAAESTESPENVALSADPEGKEDGEEPPGTSQTSPEEFTDAKHESLFSLETNFLEEESGDNSSLKASQDPFLQHVNKELKEKAIQAVATNPKTTHELKWPILGQLFFSSKFQKLETFKPPKDIDLKSLHLQKPLESTWTKTNSQFLSGPQKSSSPFTPLQKELFLIMNSYRDLFYPERTALKNGEEIRHVYCLHVINHILKANAQVLGNNSRRRSQKFGVGDDDDFRDQGLTRPKVLIVVPFREAALRVVQLFISLLEGDSKKKIIVSNKKRFQGEYGSDPEERPPNLKRPEDYEAVFVGNIDDHFRIGVAILQRSIRLYAPFYSSDILIASPLGLRTIIGGEGEKKRDFDFLSSIELLIIDQADIYLMQNWEHVLHLMNHMNLLPLDSHGVDFSRVRMWSLNNWSKYYRQTLLFGALQDAQINSVFNKYCVNMQGQVAVRNVPMTGSISHVLVQLPHVFQRMEAENLASVIDARFNFFVNKILPQYRDAVMSHTLIYIPSYFDFVRLRNYFKKEELNFTHICEYTQKSGVSRARHFFLQGEKQFLLFTERFHFYKRYTIKGIRNLIFYELPTYPHFYSEICNMLRATNRGEEATWTCTVLYSKYDAQRLAAVVGVERAAQMLQSNKNVHLFITGEK
# B6: Abl interactor 2 (Homo sapiens), Q9NYB9 (parent)
# chain: B2 chain
# partner: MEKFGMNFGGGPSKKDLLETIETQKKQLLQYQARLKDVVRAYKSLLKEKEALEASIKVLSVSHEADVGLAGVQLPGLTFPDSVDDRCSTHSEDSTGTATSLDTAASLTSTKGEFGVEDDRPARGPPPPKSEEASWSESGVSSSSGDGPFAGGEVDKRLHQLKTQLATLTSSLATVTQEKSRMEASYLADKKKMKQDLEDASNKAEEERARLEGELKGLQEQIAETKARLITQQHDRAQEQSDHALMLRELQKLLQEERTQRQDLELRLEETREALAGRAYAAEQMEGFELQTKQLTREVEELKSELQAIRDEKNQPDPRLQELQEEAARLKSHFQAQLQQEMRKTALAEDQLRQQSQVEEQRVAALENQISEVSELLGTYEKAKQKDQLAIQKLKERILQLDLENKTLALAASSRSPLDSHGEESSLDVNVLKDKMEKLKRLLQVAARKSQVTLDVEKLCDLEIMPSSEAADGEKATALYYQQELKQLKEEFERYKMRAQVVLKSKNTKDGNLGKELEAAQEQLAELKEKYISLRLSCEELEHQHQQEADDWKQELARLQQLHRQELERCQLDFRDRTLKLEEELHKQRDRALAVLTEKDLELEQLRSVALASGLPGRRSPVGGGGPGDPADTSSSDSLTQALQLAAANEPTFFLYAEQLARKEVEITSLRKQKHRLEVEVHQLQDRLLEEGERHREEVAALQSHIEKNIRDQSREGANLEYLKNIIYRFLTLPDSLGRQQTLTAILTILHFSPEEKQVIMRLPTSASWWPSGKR
# B7: Abl interactor 2 (Homo sapiens), Q9NYB9 (parent)
# chain: B2 chain
# partner: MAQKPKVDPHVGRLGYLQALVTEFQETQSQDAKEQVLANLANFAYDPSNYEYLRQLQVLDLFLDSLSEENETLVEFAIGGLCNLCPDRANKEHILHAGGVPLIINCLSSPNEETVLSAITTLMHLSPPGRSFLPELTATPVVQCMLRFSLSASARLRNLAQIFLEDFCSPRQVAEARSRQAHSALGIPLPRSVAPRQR
# B8: Histone-lysine N-methyltransferase SMYD1 (Homo sapiens), Q8NB12 (parent)
# chain: MTIGRMENVEVFTAEGKGRGLKATKEFWAADIIFAERAYSAVVFDSLVNFVCHTCFKRQEKLHRCGQCKFAHYCDRTCQKDAWLNHKNECSAIKRYGKVPNENIRLAARIMWRVEREGTGLTEGCLVSVDDLQNHVEHFGEEEQKDLRVDVDTFLQYWPPQSQQFSMQYISHIFGVINCNGFTLSDQRGLQAVGVGIFPNLGLVNHDCWPNCTVIFNNGNHEAVKSMFHTQMRIELRALGKISEGEELTVSYIDFLNVSEERKRQLKKQYYFDCTCEHCQKKLKDDLFLGVKDNPKPSQEVVKEMIQFSKDTLEKIDKARSEGLYHEVVKLCRECLEKQEPVFADTNIYMLRMLSIVSEVLSYLQAFEEASFYARRMVDGYMKLYHPNNAQLGMAVMRAGLTNWHAGNIEVGHGMICKAYAILLVTHGPSHPITKDLEAMRVQTEMELRMFRQNEFMYYKMREAALNNQPMQVMAEPSNEPSPALFHKKQ
# Variants of: B1
# Conditions: with pr20e_human PRR20E
row,effect of a mutation on the interaction,Variant
1,with no effect,T108M

# Variants of: B1
# Conditions: with rbpms_human RBPMS
row,effect of a mutation on the interaction,Variant
1,with no effect,T108M

# Variants of: B2
# Conditions: with tle5_human TLE5, Q08117
row,effect of a mutation on the interaction,Variant
1,with no effect,R373C

# Variants of: B2
# Conditions: with tle5_human TLE5, Q08117
# Remark: another data set of the same source
row,effect of a mutation on the interaction,Variant
1,with no effect,E202K

# Variants of: B3
# Conditions: with kifc3_human KIFC3, Q9BVG8
row,effect of a mutation on the interaction,Variant
1,disrupting interaction strength,R373C

# Variants of: B3
# Conditions: with kifc3_human KIFC3, Q9BVG8
# Remark: another data set of the same source
row,effect of a mutation on the interaction,Variant
1,with no effect,E202K

# Variants of: B4
# Conditions: with dtnb_human DTNB
row,effect of a mutation on the interaction,Variant
1,with no effect,E202K

# Variants of: B4
# Conditions: with dtnb_human DTNB
# Remark: another data set of the same source
row,effect of a mutation on the interaction,Variant
1,with no effect,R373C

# Variants of: B5
# Conditions: with rufy1_human RUFY1, Q96T51
# Chain of rufy1_human RUFY1, Q96T51 (Q96T51 whole entry): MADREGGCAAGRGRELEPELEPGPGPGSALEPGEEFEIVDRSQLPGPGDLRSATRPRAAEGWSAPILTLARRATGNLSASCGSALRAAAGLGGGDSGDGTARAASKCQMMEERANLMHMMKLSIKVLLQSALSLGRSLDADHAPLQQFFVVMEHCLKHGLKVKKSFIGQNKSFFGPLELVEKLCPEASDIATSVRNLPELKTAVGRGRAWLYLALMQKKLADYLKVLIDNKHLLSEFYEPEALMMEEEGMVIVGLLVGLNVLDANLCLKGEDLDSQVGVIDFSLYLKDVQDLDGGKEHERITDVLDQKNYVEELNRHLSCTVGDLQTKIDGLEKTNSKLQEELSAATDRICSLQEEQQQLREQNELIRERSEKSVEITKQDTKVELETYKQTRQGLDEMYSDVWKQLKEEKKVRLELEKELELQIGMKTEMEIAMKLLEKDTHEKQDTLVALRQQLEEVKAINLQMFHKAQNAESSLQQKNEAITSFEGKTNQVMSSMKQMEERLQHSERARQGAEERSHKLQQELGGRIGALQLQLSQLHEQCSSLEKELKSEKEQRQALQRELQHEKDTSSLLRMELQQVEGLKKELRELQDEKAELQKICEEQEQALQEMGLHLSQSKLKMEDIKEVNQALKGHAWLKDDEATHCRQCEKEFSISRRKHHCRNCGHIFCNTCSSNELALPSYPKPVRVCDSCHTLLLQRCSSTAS
row,effect of a mutation on the interaction,Variant
1,with no effect,D399E

# Variants of: B6
# Conditions: with gcc1_human GCC1, Q96CN9
row,effect of a mutation on the interaction,Variant
1,with no effect,E202K

# Variants of: B7
# Conditions: with armc7_human ARMC7, Q9H6L4
row,effect of a mutation on the interaction,Variant
1,with no effect,E202K

# Variants of: B8
# Conditions: with bhe40_human BHLHE40, O14503
# Chain of bhe40_human BHLHE40, O14503 (O14503 whole entry): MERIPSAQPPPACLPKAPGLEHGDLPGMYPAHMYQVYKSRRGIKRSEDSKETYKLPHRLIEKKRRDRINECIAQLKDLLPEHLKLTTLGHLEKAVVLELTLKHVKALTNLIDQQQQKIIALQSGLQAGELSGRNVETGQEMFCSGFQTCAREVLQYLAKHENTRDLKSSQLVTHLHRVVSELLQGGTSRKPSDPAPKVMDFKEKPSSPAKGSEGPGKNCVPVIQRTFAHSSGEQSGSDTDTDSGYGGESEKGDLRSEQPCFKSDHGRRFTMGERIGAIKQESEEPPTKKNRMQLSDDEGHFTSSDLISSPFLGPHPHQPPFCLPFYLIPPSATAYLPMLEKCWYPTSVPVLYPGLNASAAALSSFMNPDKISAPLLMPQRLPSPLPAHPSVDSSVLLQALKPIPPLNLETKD
row,effect of a mutation on the interaction,Variant
1,with no effect,Q443R
